Measured values published in the supplement of paper PMC9170038.

Key:
MS2 coat protein [1] = test: apparent KD of MS2 coat protein, switch OFF state (with FMN for OFF switches, without FMN for ON switches); designed switch direction (-1 OFF switch, 1 ON switch): -1; higher = weaker reporter binding; details: FMN input: 0 or 200 uM; Eterna round: R93 (includes R88 designs)
Summary of the method: (§1)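 Apparent KD stands for the median, per design, of fits to normalised cluster binding curves. The curves came from titrating on-chip-transcribed RNA switches on Illumina sequencing clusters with SNAP-549-labelled MS2 coat protein, twofold from 0.7 or 1.5 nM to 3 µM. Buffer was 100 mM Tris-HCl pH 7.5, 80 mM KCl, 4 mM MgCl2, without or with constant ligand.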

MS2 coat protein [2] = test: apparent KD of MS2 coat protein, switch ON state; designed switch direction (-1 OFF switch, 1 ON switch): -1; higher = weaker reporter binding; details: FMN input: 0 or 200 uM; Eterna round: R93 (includes R88 designs)
Summary of the method: as §1

MS2 coat protein [3] = test: apparent KD of MS2 coat protein; designed switch direction (-1 OFF switch, 1 ON switch): 1; higher = weaker reporter binding
Summary of the method: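 Designed RNA switches sharing common flanks were transcribed on Illumina chips by stalled E. coli RNA polymerase. They were titrated with SNAP-549-labelled MS2 coat protein, from 0.7 or 1.5 nM doubling to 3 µM, in Tris-HCl pH 7.5 buffer with KCl, MgCl2, BSA, DTT, tRNA and Tween-20. Titrations ran without input, with 200 uM small-molecule ligand, or with an oligonucleotide input. The apparent KD of each design is the median over its clusters, after curve-fitting of normalised cluster fluorescence.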

[4] = Eterna round: R95, input ligand: FMN 200 uM
[5] = Eterna round: R95, input ligand: microRNA oligo, concentration not stated
[6] = Eterna round: R95, input ligand: none
[7] = input ligand: microRNA oligo, concentration not stated

Sequence | apparent KD of MS2 coat protein (MS2 coat protein [3]; [7]) [µM] | apparent KD of MS2 coat protein (MS2 coat protein [3]; input ligand: FMN 200 uM) [µM] | apparent KD of MS2 coat protein (MS2 coat protein [3]; input ligand: none) [µM] | other results
AAAAAACAUGAGGAUCACCCAUGUGAGGAUAUCCAAAAGUCAAAGAAAAAGACGAAAAGGAGAAGGCACAAAAA [Banishment 2 - Jieux - Exclusion 1] |  |  |  | apparent KD of MS2 coat protein (MS2 coat protein [1]): 0.0491 µM; apparent KD of MS2 coat protein (MS2 coat protein [2]): 0.0442 µM
AGUUGGCGAGGAUAUACAUGAGGAUCACCCAUGUGAAAUCGCGAAGAAAUAGGGAAAAGUAGAAGGCGCUGACA [Ruby 61] |  |  |  | apparent KD of MS2 coat protein (MS2 coat protein [1]): 0.0199 µM; apparent KD of MS2 coat protein (MS2 coat protein [2]): 0.0116 µM
CUUAUGUCAGGAUAUCAGUAGUAAAAAAAUAAAAUUACUACUGAGAAGGGACAUGAGGAUCACCCAUGUCAAAA [EX4 365: Super Stable 65] |  |  |  | apparent KD of MS2 coat protein (MS2 coat protein [1]): 0.0972 µM; apparent KD of MS2 coat protein (MS2 coat protein [2]): 0.164 µM
CCGAGACAUGAGGAUCACCCAUGUGAGGAUAUAGGUGUAUGCAAAAAAAAGUUAAAAACUAGAAGGCACAGAGG [JR_Exc001_Sub307] |  |  |  | apparent KD of MS2 coat protein (MS2 coat protein [1]): 0.0309 µM; apparent KD of MS2 coat protein (MS2 coat protein [2]): 0.037 µM
AGUUGGCGAGGAUAUACAUGAGGAUCACCCAUGUGAAAUAAAUAAAAAAUAAAAGGGAGUAGAAGGCGCUGACA [73%, Moding Norbert Elias, 17] |  |  |  | apparent KD of MS2 coat protein (MS2 coat protein [1]): 0.0823 µM; apparent KD of MS2 coat protein (MS2 coat protein [2]): 0.0436 µM
AGUAGAUCAGGAUAUACGUGAAAGGUCAAAGUGUCACUUCUACAUGAGGAUCACCCAUGUAGAAGGGAUCUACA [Ex2 Design 122: Not so Super Stable 9] |  |  |  | apparent KD of MS2 coat protein (MS2 coat protein [1]): 0.0124 µM; apparent KD of MS2 coat protein (MS2 coat protein [2]): 0.0129 µM
AAGAAAGUAGGAUAUACAAGGAAGAAAGAAAAGAAAAGAAAACAUGAGGAUCACCCAUGUAGAAGGACUUAGAA [EteRNA is fun!] |  |  |  | apparent KD of MS2 coat protein (MS2 coat protein [1]): 0.0187 µM; apparent KD of MS2 coat protein (MS2 coat protein [2]): 0.0275 µM
ACAAGCUUUUCUGUAGUGAAAGGUGGGAUACAUGAGGAUCACCCAUGUAUUGUUGUCAAUAUUUGUCCUCGUCUUAU [JR_SHM208A_Sub086] (puzzle: Sensor for hsa-mir-208a) |  |  |  | apparent KD of MS2 coat protein (MS2 coat protein [3]; [4]): 0.0314 µM; apparent KD of MS2 coat protein (MS2 coat protein [3]; [5]): 0.011 µM; apparent KD of MS2 coat protein (MS2 coat protein [3]; [6]): 0.0311 µM
GUGGUCAGACAUGAGGAUCACCCAUGUGGAAUAAAUAAGGAGAAGGAUAUGCAAUAUAGGAUAUAGCAGAAGGUUUGGUUGGUG (Eterna round: R96, puzzle: Same State NG 3) | 0.0696 |  |  | 
UCUUGGUUUUUGCUCGUUUUUUGUGUUGAACAUGAGGAUCACCCAUGUAUUGUACGGUCCAGUUUAGUGGUAAUCCG [JMF 69] (puzzle: Sensor for hsa-mir-208a) |  |  |  | apparent KD of MS2 coat protein (MS2 coat protein [3]; [4]): 0.0339 µM; apparent KD of MS2 coat protein (MS2 coat protein [3]; [5]): 0.0206 µM; apparent KD of MS2 coat protein (MS2 coat protein [3]; [6]): 0.0368 µM
GCGGACCUGACAUGAGGAUCACCCAUGUUGCGGAGACGCAAUGAGGAUAUCGAUGGGUUUCCCGUCGAGAAGGCAUAAAUCCGC [JL SSNG3 3.93 mod 3] (Eterna round: R96, puzzle: Same State NG 3) | 0.016 | 0.0151 | 0.0252 | 
UGGCUCAGAGCAGGAUAUACGUGGUCACAUGAGGAUCACCCAUGUCUCGAGCUUCGGCUCGAGGCGUAGAAGGGCUCUGAGCCA [SSNG2/6-B2] (Eterna round: R96, puzzle: Same State NG 2) | 0.187 | 0.11 | 0.305 | 
UGUUAGUAGACAGGAUAUUGAAUGUUAAGUAUUAACAUGAGGAUCACCCAUGUAUUAGAUUGGUACAAGAAGGGUCAAGUUUGU [JR_SSNG2_Sub012] (Eterna round: R96, puzzle: Same State NG 2) | 0.242 |  |  | 
GCAGAACAUGAGGAUCACCCAUGUCUCUAAUAUCGAGGAUAUGGGCAGGGUAUAUCCCAACCAGAAGGCGAACUGC [SS1 Teenbexe 14] (puzzle: Same State 1) |  |  |  | apparent KD of MS2 coat protein (MS2 coat protein [3]; [4]): 0.0517 µM; apparent KD of MS2 coat protein (MS2 coat protein [3]; [5]): 0.14 µM; apparent KD of MS2 coat protein (MS2 coat protein [3]; [6]): 0.205 µM
UGAACCGUCACAGGAUAUCAUGCGAAAAUUGCGUGAGAAGGGUGGAUGUUGUGCUCAAAGUUCUACAUGAGGAUCACCCAUGUU [SameState NG1 #44] (Eterna round: R96, puzzle: Same State NG 1) | 0.0335 | 0.0619 | 0.0605 | 
CGUCGUUUGAUAGGAUAUCGCUUUACAUGAGGAUCACCCAUGUUUCCCACGCUGGUUUUUCUUUCCGAGAAGGAUUCUGAUGUU [salish99_SSNG02_r04_029] (Eterna round: R96, puzzle: Same State NG 2) | 0.0314 | 0.0446 | 0.0406 | 

Sequence | apparent KD of MS2 coat protein (MS2 coat protein [3]; [7]) [µM] | apparent KD of MS2 coat protein (MS2 coat protein [3]; input ligand: FMN 200 uM) [µM] | apparent KD of MS2 coat protein (MS2 coat protein [3]; input ligand: none) [µM] | other results
CUGAGCGAUCAAGGAUAUCACGUCGUUUAGACGUGAGAAGGUGAUCCAUACAUGAGGAUCACCCAUGUAUAACAUGAAGCUCAG [SSNG1/8-A3] (Eterna round: R96, puzzle: Same State NG 1) | 0.057 | 0.646 | 1.54 | 
UUUGAAUUGCAAGGAUAUUGAUAACAUGAGGAUCACCCAUGUAAUUGUUCGAGUUAGAUUAGUUACAAGAAGGUGCUAUUGUUU [JR_SSNG2_Sub039] (Eterna round: R96, puzzle: Same State NG 2) | 0.165 | 0.385 | 0.287 | 
UCUUGGUUUUUGCUCGUUUUUUGUGUUGAACAUGAGGAUCACCCAUGUAUUGUACAGUCCAAUUUGAUAAUGGUCCG [JMF 54] (Eterna round: R96, puzzle: Sensor for hsa-mir-208a) | 0.0281 | 0.0502 | 0.0551 | 
GGCACAAAAGCACAGGAUAUGCAAAAGAACACAUGAGGAUCACCCAUGUAGCCUAAUAAAGGGCAGCAGAAGGGUGGGACUGCCA [Quaat] (puzzle: Same State 2) |  |  |  | apparent KD of MS2 coat protein (MS2 coat protein [3]; [4]): 0.0745 µM; apparent KD of MS2 coat protein (MS2 coat protein [3]; [5]): 0.239 µM; apparent KD of MS2 coat protein (MS2 coat protein [3]; [6]): 0.239 µM
AAAGGACAUGAGGAUCACCCAUGUAGAAAAUACACAGGAUAUCGUCAUAUCGAAUUAUAAUGAGAAGGGUGCAAAA [Vebeinlala] (puzzle: Same State 1) |  |  |  | apparent KD of MS2 coat protein (MS2 coat protein [3]; [4]): 0.0599 µM; apparent KD of MS2 coat protein (MS2 coat protein [3]; [5]): 0.273 µM; apparent KD of MS2 coat protein (MS2 coat protein [3]; [6]): 0.124 µM
AGUCCAGCGAAAGCUGGACAAAAGCAUGUACAUGAGGAUCACCCAUGUUCAUGUACAAGCUUUUUGCUCGUCUUGAA [JL mod - D95 - 9] (puzzle: Sensor for hsa-mir-208a) |  |  |  | apparent KD of MS2 coat protein (MS2 coat protein [3]; [4]): 0.313 µM; apparent KD of MS2 coat protein (MS2 coat protein [3]; [5]): 0.0171 µM; apparent KD of MS2 coat protein (MS2 coat protein [3]; [6]): 0.611 µM
AGUCCAGCCUGAGCUGGACAAAUGCAUGUACAUGAGGAUCACCCAUGUUCAUGUACAAGCAUUUUGCUCGUCUUAAA [Sensor for hsa-mir-208a (JL zipper 55 mod - 61 to A)] (Eterna round: R96, puzzle: Sensor for hsa-mir-208a) | 0.0135 | 0.33 | 0.346 | 
GGUCGGACUCACAUGAGGAUCACCCAUGUUCCGGAAACGGGACAGGAUAUCUGUCCGAAAAGGUCAGAGAAGGGUCUACCGACC [Fiskers NG3ss - 54] (Eterna round: R96, puzzle: Same State NG 3) | 0.126 | 0.353 | 0.289 | 
AGGAAACAUGAGGAUCACCCAUGUAAGAUAUACACAGGAUAUGCGAAAAGAAACAAAGAAGCAGAAGGGUGGAAAA [75%, Ex sub1, 11] (Eterna round: R96, puzzle: Same State 1) | 0.0227 | 0.0166 | 0.0435 | 
UAAAGAUCGCGAGGAUAUCGCGAGGAUCACCCGUGAGAAGGCGCAGAGCCGAGGAUCACCCGGCUGAUCCUGAGGAGGAGGUCU (Eterna round: R96, puzzle: Same State NG 1) | 0.202 | 0.124 | 0.318 | 
GUGCUCGUGUGAGGAUAUGCUUCCGGGUCGGCUGCAGAAGGUACUAUUAUACAUGAGGAUCACCCAUGUCGCUUUUCUCCGGUG [salish99_SSNG1_r04_917] (Eterna round: R96, puzzle: Same State NG 1) | 0.0292 | 0.0482 | 0.0384 | 
GUGGAGGAUUAAGGAUAUUGAAUACAUAUGUUUAACAUGAGGAUCACCCAUGUGGGUUGCGGUAUCGAGAAGGUAAAUUACUGG [salish99_SSNG2_r04_034] (Eterna round: R96, puzzle: Same State NG 2) | 0.0632 | 0.146 | 0.117 | 
GGGAGAGACGUAGGAUAUGGAAGAAGAUAGAGACUAGAAGGGUGAACAUGAGAAUCGAAGUGUAAAGUGAGAUGAGGUGGGAGA [iteri-1] (Eterna round: R96, puzzle: Same State NG 1) | 0.0169 | 0.0265 | 0.0369 | 
GGUACAUGAGGAUCACCCAUGUCAAAGGCACCGUGCAGACUGGAGGAUAUCACAGCAGAAAGCUGUGAGAAGGCCGUGUAAGCG [Eternabot solution 17] (Eterna round: R96, puzzle: Same State NG 3) | 0.0246 | 0.0174 | 0.0429 | 
GGCGAAUAAACAUGAGGAUCACCCAUGUAGCGGAGACGCAAUGAGGAUAUCGAUGGGUUUCCCGUCGAGAAGGCAUGGGUCGCC [JL SSNG3 3.93 mod 1] (Eterna round: R96, puzzle: Same State NG 3) | 0.0996 | 0.0208 | 0.14 | 
